Usually stoichiometry N stands for the number of molecules, sites or subunits per partner or assembly.

Data set [1] deals with P116 variant Trp681Ala (Mycoplasma pneumoniae) (UniProt P75556). Description: SEC-MALS. (SEC sorts molecules by how far they enter the pores of the column.)
Data set [2] deals with the molecule itself. As to the kind of experiment: cryo-EM structure.

Regarding “P116 variant Trp681Ala (from UniProt P75556 30-957) (domain or fragment)”, the ratio of dimers to monomers (dimers per monomer) in data set [1] amounted to 0.25.

B1: P116 ectodomain (residues 30-957) from Mycoplasma pneumoniae (domain or fragment, UniProt P75556 30-957, looked up)
chain: NKTHQVEHESEQSDFQDIRFGLNSVKLPKAQPAAATRITVENGTDKLVNYKSSPQQLFLAKNALKDKLQGEFDKFLSDAKAFPALTADLQEWVDQQLFNPNQSFFDLSAPRSNFTLSSDKKASLDFIFRFTNFTESVQLLKLPEGVSVVVDSKQSFDYYVNASAQKLLVLPLSLPDYTLGLNYMFDHITLNGKVVNKFSFNPFKTNLNLAFSNVYNGVDVFEAQKNLVGKGKYLNTHVKAEDVKKDVNANIKNQFDIAKIIAELMGKALKEFGNQQEGQPLSFLKVMDKVKEDFEKLFNLVRPGLGKFVKDLIQSSSQAENKITVYKLIFDNKKTILNLLKELSIPELNSSLGLVDVLFDGITDSDGLYERLQSFKDLIVPAVKTNEKTAALSPLIEELLTQKDTYVFDLIQKHKGILTNLLKNFLADFQKSTPFMADQVAIFTELFDNEGAFDLFGEADFVDKIAELFLTKRTVKNGEKIETKDSLLVTSLKSLLGEKVAALGDLLDSYIFKNELLNRSVEVAKAEAKDTKGATDYKKEQAKALKKLFKHIGENTLSKTNLDKITLKEVKNTENVELEETETTLKVKKLDVEYKVELGNFEIKNGLIKAMLEFLPDTKDLETTLDKLLFKGESYKAMKDKYIKEGFPGYGWAKGVVPGAFESIENTFKSAIDKTKSIRDLFGDMLFGNDLSSVKETDSFITLGGSFDIKYGGENLNVLPAYYSLINSEIGYQIIGVDTTIDATKVKVELKNKEYKGKSPAINGQVKLSQSFFNVWTNMFDSITKQIFQKKYEFKDNIQVFARNEDNTSRLELDISDPEQRVIPFAFVDGFGIQLKAVDKNITKEAGNTEPKSPVIQLYEALNKEKDQKQQSKQSPKQLDTKTQLGYLLKLGDNWSKDDYKSLIDDTIINNNYLEASFNSKITVDRLG
As for B1, in data set [2], the “stoichiometry N” value is 2.

The values are drawn from publication doi:10.1101/2022.06.28.498018 (bioRxiv, 2022).
